# B1: 0210-28K (antibody, V domains shown)
# VH: QMQLVQSGPEVKKPGTSVKVSCKASGFTFSISAVQWVRQARGQRLEWIGWIVVGSGNTNYAQKFQERVTITRDMSTSTAYMELSSLRFEDTAVYYCAAPYCGGDCSDGFDIWGQGTMVTVSS
# VL: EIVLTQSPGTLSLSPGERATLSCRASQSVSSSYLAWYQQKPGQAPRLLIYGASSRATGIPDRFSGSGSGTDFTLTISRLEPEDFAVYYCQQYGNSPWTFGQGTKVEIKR
# How the values were obtained:
# Assay in all cases: cell-based or functional assay
# [1] = molecular target: Kappa strain spike protein on pseudotype virus (SARS-CoV-2, UniProt P0DTC2 14-1273)
# [2] = molecular target: Delta strain spike protein on pseudotype virus (SARS-CoV-2, UniProt P0DTC2 14-1273)
# [3] = molecular target: Omicron strain spike protein on pseudotype virus (SARS-CoV-2, UniProt P0DTC2 14-1273)
binder,measurement,setting,value
B1,"IC50, inhibition of pseudotype virus infection, 1st experiment",[1],0.0108 µg/mL
same,"IC50, inhibition of pseudotype virus infection, 2nd experiment",[1],0.0203 µg/mL
same,"IC50, inhibition of pseudotype virus infection, 1st experiment",[2],< 0.0075 µg/mL
same,"IC50, inhibition of pseudotype virus infection, 2nd experiment",[2],0.0121 µg/mL
same,"IC50, inhibition of pseudotype virus infection (luciferase)",[3],~0.2 nM

# Reference: WO2022210830A1 (dated 2022)
